41 sequences from the nanobody polyreactivity screen of Harvey et al. (2022) can be followed below.

A short description of the data set: yeast display, Sf9 membrane polyspecificity reagent, FACS + sequencing; frameworks hold sequencing errors. Put shortly: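 Galactose-induced (36–48 hours) yeast carrying a synthetic nanobody display library were exposed to 10% biotinylated, detergent-solubilized Sf9 membrane reagent at 4 °C for 1 hour. FACS followed streptavidin microbead enrichment, using low and high (top ~1%) gates for expression (anti-HA) and reagent binding (streptavidin). Colony PCR, MiSeq 2 × 250 sequencing and CDR-length filtering followed. Labels for polyreactivity reflect the gate of origin.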
Consider “QVQLVESVGGLVQAGGSLRLSCAASGRTFGRKALVWYTQAPGKERELVAAISTSGSRTYYADSVKGRFTISRDNAKNTVYLQLNSLTPEDTAVYYCYAYGVSRGSYGTRGYWGQGTQVTVSS”, for which the “polyreactivity (PSR sort gate)” value was “high polyreactivity”.

With “QVQLVESVGGLVQAGGSLRLSCAASGRTFGRYAMGWDRQAPGKERELVAAISWSGATTYYADSVKGRFTISRDNAKNTVYLQMNSLKPEDTAVYYCAARFRRGITYEYWGQGTQVTVSS”, the “polyreactivity (PSR sort gate)” value is “high polyreactivity”.

Turning to “QVQLVESVGGLVQAGGSLRLSCAASGRTFGRYAMGWYRQAPGKERELVAGISRSGDSTHYADSVKGRFTISRDNAKNTVYLQMNSLKPEDTAVYYCNKETPTNGARKYEYWGQGTQVTVSS”, the “polyreactivity (PSR sort gate)” value is “low polyreactivity”.

In the case of “QVQLVESVGGLVQAGGSLRLSCAASGRTFLRNAMGWYRQAPGKERELVASITSRGGRTYADSVKGRFTISRDNAKNTVYLQMNSLKPEDTAVYYCAARRQAGLRYDYWGQGTQVTVSS”, the “polyreactivity (PSR sort gate)” value is listed as “high polyreactivity”.

For “QVQLVESVGGLVQAGGSLRLSCAASGRTFMYNAMGWYRQAPGKERELVAAISWSGGSTYYADSVKGRFTISRDNAKNTVYFLMNSLKPEDTAVYYCAATGRRSGFYFWGQGTQVTVSS”, the “polyreactivity (PSR sort gate)” value is “high polyreactivity”.

As for “QVQLVESVGGLVQAGGSLRLSCAASGRTFPYYAKGGYRQAPWKERELVATISSGGITNYADSVKVRFTISRDNAKNTVYLQMNSLKPEDTAVYYCAADRHWSAGLWRYDYWGQGTQVTVSS”, the “polyreactivity (PSR sort gate)” value was “high polyreactivity”.

As for “QVQLVESVGGLVQAGGSLRLSCAASGRTFVRYTMGWYRQAPGKERELVAAITWSGGSTYYADSVKGRFTISRDNATNTVYLQMNSLKPEDTAVYDCAARTYFGTQLQRYYWGQGTQVTVSS”, the “polyreactivity (PSR sort gate)” value was “high polyreactivity”.

“QVQLVESVGGLVQAGGSLRLSCAASGRTLRYYAMGWYRQAPGKERELVATITRRSGSTYYADSVKGRFTISRDNAKNTVYLQMNSLKPEDTAVYYCNAVWRPGERDYWGQGTQVTVSS”: the “polyreactivity (PSR sort gate)” value is given as “low polyreactivity”.

As for “QVQLVESVGGLVQAGGSLRLSCAASGSIEAYAMGWYRQAPGKERELVASITWRGGSTYYADSVKGRFTISRDNAKNTVYLQMNSLKPEDTAVYYCAAGFQTRTPLNQFDYWGQGTQVTVSS”, the “polyreactivity (PSR sort gate)” value is reported as “low polyreactivity”.

Consider “QVQLVESVGGLVQAGGSLRLSCAASGSIFAIYVMGSYRQAPGKERELVAAISYRSGSTYYADSVKGRFTISRDNAKNTVYLQMNSLKPEDTAVYYCAATSRYYTFGYWGQGTQVTVSS”, for which the “polyreactivity (PSR sort gate)” value is recorded as “low polyreactivity”.

For the sequence “QVQLVESVGGLVQAGGSLRLSCAASGSIFAPYAMGWYRQAPGKERELVAAITWSGDSTYYADSVKGRFTISRDNAKNTVYLQMNSLKPEDTAVYYCATEEVYGQGNYWGQGTQVTVSS”, the “polyreactivity (PSR sort gate)” value was “low polyreactivity”.

On to “QVQLVESVGGLVQAGGSLRLSCAASGSIFAVNAMGWYRKAPGTERELVAAITSSGVDTYYADSVKGRFTISRDNAKNTVYLQMNSLKPEDTAVYYCAADDQLNWYDYWGQGTQVTVSS”, for which the “polyreactivity (PSR sort gate)” value is reported as “low polyreactivity”.

In the case of “QVQLVESVGGLVQAGGSLRLSCAASGSIFHYNALGWYRPAPGKERELVAAITSGGSTYADSVKGRFTISRDNAKNTVYLQMNSLKPEDTAVYYCNADSVGPRGDLGYWGQGTQVTVSS”, the “polyreactivity (PSR sort gate)” value is “low polyreactivity”.

For the sequence “QVQLVESVGGLVQAGGSLRLSCAASGSIFLQYTMGWYRQAPGKERELVAAITESDGSTYYADSVKGRFTISRDNAKNTVYLQMNSLKPEDTAVYYCAADVVYFKYWDKYDYWGQGTQVTVSS”, the “polyreactivity (PSR sort gate)” value was “low polyreactivity”.

On to “QVQLVESVGGLVQAGGSLRLSCAASGSIFRLYAMGWYRQAPGKERELVAAITWSGGSTYYADSVKGRFTISRDNAKNTVYLQMNSLKPEDTAVYYCNALVGGYRSAIFGYWGQGTQVTVSS”, for which the “polyreactivity (PSR sort gate)” value is reported as “high polyreactivity”.

Take “QVQLVESVGGLVQAGGSLRLSCAASGSIFSSYAMGWYRQAPGKERELVAAITSGGSTYYADSVKGRFTISRDNAKNTVYLQMNSLKPVDPAVYYCAAREVLTSKLHMGYWGTGTQVTVSS”: the “polyreactivity (PSR sort gate)” value is “low polyreactivity”.

Consider “QVQLVESVGGLVQAGGSLRLSCAASGSIFTYNAMGWYRQAPGKERELVAAITTSGDSTYYADSVKGRFTISRDNAKNTVYLQMNSLKPEDTAVYYCNADWSWYNYYDFDYWGQGTQVTVSS”, for which the “polyreactivity (PSR sort gate)” value is listed as “low polyreactivity”.

For “QVQLVESVGGLVQAGGSLRLSCAASGSIFVKNAMGWYRQAPGKEREFVAVISTGDSTHYADSVKGRFTISRDNAKNTVYLQMNSLKPEDTAVYYCAARYYSYGSSYGYWGQGTQVTVSS”, the “polyreactivity (PSR sort gate)” value is on record as “high polyreactivity”.

On to “QVQLVESVGGLVQAGGSLRLSCAASGSIFVKNAMGWYRQAPGKERELVAVITIRTATTYYADSVKGRFTISRDNAKNTVYLQMNSLKPEDTAVYYCAAAKRQRGYLQREYDYWGQGTQVTVSS”, for which the “polyreactivity (PSR sort gate)” value is listed as “low polyreactivity”.

Take “QVQLVESVGGLVQAGGSLRLSCAASGSIFYWSAMGWYRQAPGKERELVAAISSGGSTNYADSVKGRFTISRDNAKNTVYLQMNSLKPEDTAVYYCAAGWDASYGYDYWGQGTQVTVSS”: the “polyreactivity (PSR sort gate)” value is “low polyreactivity”.

For the sequence “QVQLVESVGGLVQAGGSLRLSCAASGSNFYVNAMGWYRQAPGKERELVAAISRRGGSTYYADSVKGRFTISRDNAKNTVSLQMNSLKPEDTAVYYCNKAIRGQAPSGPEYYYWGHGTQVTVSS”, the “polyreactivity (PSR sort gate)” value was “high polyreactivity”.

In the case of “QVQLVESVGGLVQAGGSLRLSCAASGSTFGIYTMGWYRQAPGKERELVAAISSRGGSTYYADSVKGRFTISRDNAKNTVYLQMNSLKPEDTAVYYCAAVGRSHSRPYTDEYWGQGTQVTVSS”, the “polyreactivity (PSR sort gate)” value was “high polyreactivity”.

As for “QVQLVESVGGLVQAGGSLRLSCAASGSTFGYYTMGSYRQAPGKEKELVAAITWSGGSTYYADSVKGRITISRDNAKYTVYLQINSLKPEDTAVYYCADDDYWTPFGYLGQGTQVTVSS”, the “polyreactivity (PSR sort gate)” value is “low polyreactivity”.

Take “QVQLVESVGGLVQAGGSLRLSCAASGSTFHRNTMGWDRQAPGKERELVAGISLRGVRTYYADSVKGRFTISRDKAKNTVYLQMNSLKPEDTAVYYCAAGCPYTRNFKLGYWGQGTQVTVSS”: the “polyreactivity (PSR sort gate)” value is “high polyreactivity”.

With “QVQLVESVGGLVQAGGSLRLSCAASGSTFIIYAMGWYRQAPGKERELVATISTRGTSTYYADSVKGRFTISRDNEKNTVYLQMKSLKPEDTAVYYCNARRRGYGNRYTFDYWGQGTQVTVSS”, the “polyreactivity (PSR sort gate)” value is listed as “high polyreactivity”.

Take “QVQLVESVGGLVQAGGSLRLSCAASGSTFRPYAMGWSRQAPGKERELVAAITGSGGSTYYADSVKGRFTISRDNAKNTVYLQMNSLKPEDTAVYYCNAVSTWRYYYWGQGTQVTVSS”: the “polyreactivity (PSR sort gate)” value was “high polyreactivity”.

On to “QVQLVESVGGLVQAGGSLRLSCAASGSTFRYYAMGWYRQAPGKERELVAAITGSGGSTYYADSVKGRFTISRDNAKNTVYLQMNSLKPEDTAVYYCAAYCSRSILRYDSWGQGTQVTVSS”, for which the “polyreactivity (PSR sort gate)” value is “high polyreactivity”.

As for “QVQLVESVGGLVQAGGSLRLSCAASGSTFTAYAMGWYRQAPGKERELVAAITSGGSKNYADSVKGRFTISRDNAKNTVYLQMNSLKPEDTAVYYCNADDYWLDSWSSFLWYDYWGQGTQVTVSS”, the “polyreactivity (PSR sort gate)” value is “low polyreactivity”.

With “QVQLVESVGGLVQAGGSLRLSCAASGSTFTSNAMGWYRQAPGKEREFVAAISVGGGITYYADSVKGRFTISRDNAKNTVYLQMNSLKPEDTAVYYCAADAWSVILWREMDYWGQGTQVTVSS”, the “polyreactivity (PSR sort gate)” value is on record as “low polyreactivity”.

Take “QVQLVESVGGLVQAGGSLRLSCAASGSTFWYNAMGWYRLAPGKERELVAAISQSGGRTYYADSVKGRFTISRDNAKNTVYLQMNSLKPEDTAVYYCNAVSRDKSLYDYWGQGTQVTVSS”: the “polyreactivity (PSR sort gate)” value was “high polyreactivity”.

With “QVQLVESVGGLVQAGGSLRLSCAASGSTIDGYAMGCYIQAPGKEREFVAAISFSSASTYYADSVKGRFTISRDNAKNTVYLQMNSLKPEDTAVYYCNADFFDSGGSIEDDSWGQGTQVTVSS”, the “polyreactivity (PSR sort gate)” value is listed as “low polyreactivity”.

For “QVQLVESVGGLVQAGGSLRLSCAASGYILPKNTMGWYIQAPGKERELVAAISWSGGSTFYADSVKGRFTISRDNAKNTVYLQMNRLKPEDTAVYYCAADRSWSWYYRYDYWGQGTQVTVSS”, the “polyreactivity (PSR sort gate)” value is on record as “low polyreactivity”.

For the sequence “QVQLVESVGGLVQAGGSLRLSCAASVYMFYDYDMGWYRQAPGKAREFVARITSDGSTYADSVKGRFTISRDNAKNTVYLQMNMLKPEDTAVYYCNRKSRSYFWSVQDSFKYDYWGQGTQVTVSS”, the “polyreactivity (PSR sort gate)” value is given as “low polyreactivity”.

For “QVQLVESVGGLVQAGGSLRLSCAGSGFTFYRYTMGWYRQAPGTERELVAAISFSGGITRYADSVKGRFTISRDNAKNTVYLQMNSLKPEDTAVYYCNVVGPSAYLSWHKSGDYWGQGTQVTVSS”, the “polyreactivity (PSR sort gate)” value is “low polyreactivity”.

For the sequence “QVQLVESVGGLVQAGGSLRLSCAGSGSIFFRNSMLWYRQAPGKERELVAAIRSSVSSTYYADSVKGRFTISRDNAKNTVYLQLNSLKPEDTAVYYCAAAARSYVGYYYWGQGTQVTVSS”, the “polyreactivity (PSR sort gate)” value is on record as “low polyreactivity”.

On to “QVQLVESVGGLVQAGGSLRLSCAGSGSTFGRYTMGSSRQAPVKEREFVAAIRWSGGNTYYADTVKGRFTISRGKAKNTVYLQMNSLKTEDTAVFYCNRVYSTIGDYWGQGTQVTVSS”, for which the “polyreactivity (PSR sort gate)” value is listed as “low polyreactivity”.

In the case of “QVQLVESVGGLVQAGGSLRLSCASSGRIFRGNAMGWYRQAPGKERELVAAINSRGTHTYYADSVKGRFTISRDNAKNTVYLQMNSLKPEDTAVYYCAATWTQPQPGYYAYYYWGQGTQVSVSS”, the “polyreactivity (PSR sort gate)” value is on record as “high polyreactivity”.

In the case of “QVQLVESVGGLVQAGGSLRLSCASSGSIFEGSAMGRYRQAPGKEMELVASISSGGSTNYADSVKGRFTISRDNAKNTVYLQMNSLKPEDTAVYYCAAEWVWYKWEFEYWGQGTKVTVSS”, the “polyreactivity (PSR sort gate)” value is on record as “high polyreactivity”.

Consider “QVQLVESVGGLVQAGGSLRLSCASSGSTFGFNAIGWYRKAPVKERELVAANTFSGGTTYYADSVKGRFTISRDNAKNTVYLQMNSLKPEDTAGYYCNAEWWYQYTGPFSPWGEDYWGQGTQVTVSS”, for which the “polyreactivity (PSR sort gate)” value is reported as “low polyreactivity”.

For “QVQLVESVGGLVQAGGSLRLSCDASGRIFRRYAMGWYRQAPGKERELVAAISSSGDSTYYADSVKGRFTISRDNAKNTVYLQMNSLKPEDTAVYYCAAVTRRYVLSTFYYWGQGTQVTVSS”, the “polyreactivity (PSR sort gate)” value is recorded as “high polyreactivity”.

On to “QVQLVESVGGLVQAGGSLRLSCDASGRTFRVYAMGWYRQAPGKERELVAAITSGDSTYYADSVKGRFTISRDNAKNTFYLQMNSLKPEDTAVYYCAVNTSRYWSGYWGQGTQVTVSS”, for which the “polyreactivity (PSR sort gate)” value is listed as “high polyreactivity”.
